Values quoted from earlier work in paper PMC7288020.

Biological target: Aβ1-40 Aβ 1-40 (Homo sapiens) (UniProt P05067)
Sequence of UniProt P05067 (P05067 1-40): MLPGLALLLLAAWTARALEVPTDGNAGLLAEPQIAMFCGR

Q: For ApoA1 (from UniProt P02647), which Kd is on record?
A: The Kd was 6 nM.
